Measurements as given in patent publication US20090156490A1.
Where no end group is shown, it is not given here. bis‑dPEG6 = hexa-ethylene glycol bifunctional linker (bis-dPEG6 NHS ester)

T1: 33-mer gliadin peptide (non-deamidated, α2-gliadin residues 57-89)
T1 chain: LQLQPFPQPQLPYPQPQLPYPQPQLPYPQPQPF


Columns and labels:
[1] = target: soluble HLA-DQ2 heterodimer (purified, thrombin-treated DQ2-ligand fusion protein) (human); assay: peptide exchange kinetics (HPSEC, fluorescein-labelled peptide, soluble DQ2), pH 7.3
[2] = target: soluble HLA-DQ2 heterodimer (purified, thrombin-treated DQ2-ligand fusion protein) (human); assay: peptide exchange kinetics (HPSEC, fluorescein-labelled peptide, soluble DQ2)
[3] = target: T1, 33-mer gliadin peptide (non-deamidated, …)
[4] = target: soluble HLA-DQ2 heterodimer (purified, thrombin-treated DQ2-ligand fusion protein) (human); assay: peptide exchange assay (HPSEC, fluorescein-labelled peptide 0.18 µM, soluble DQ2 4.7 µM, 37 C, 45 h), pH 5.5

Row | maximum occupancy [1] [%] | time to half maximal DQ2 occupancy [2] [h] | binding maximum (DQ2 bound peptide as a percentage of total peptide) [4] [%] | Binder | kcat/KM of deamidation [3]
1 | 40 | 2.5 |  | {5‑(and 6-)carboxyfluorescein}-LQLQPFPQPEK(bis‑dPEG6)PYPQPELPY (also: dimer: two copies crosslinked through Lys11 side chains via hexa-ethylene glycol linker) | 
2 |  |  |  | human tissue transglutaminase (tTGase) (protein) AEELVLERCDLELETNGRDHHTADLCREKLVVRRGQPFWLTLHFEGRNYEASVDSLTFSVVTGPAPSQEAGTKARFPLRDAVEEGDWTATVVDQQDCTLSLQLTTPANAPIGLYRLSLEASTGYQGSSFVLGHFILLFNAWCPADAVYLDSEEERQEYVLTQQGFIYQGSAKFIKNIPWNFGQFEDGILDICLILLDVNPKFLKNAGRDCSRRSSPVYVGRVVSGMVNCNDDQGVLLGRWDNNYGDGVSPMSWIGSVDILRRWKNHGCQRVKYGQCWVFAAVACTVLRCLGIPTRVVTNYNSAHDQNSNLLIEYFRNEFGEIQGDKSEMIWNFHCWVESWMTRPDLQPGYEGWQALDPTPQEKSEGTYCCGPVPVRAIKEGDLSTKYDAPFVFAEVNADVVDWIQQDDGSVHKSINRSLIVGLKISTKSVGRDEREDITHTYKYPEGSSEEREAFTRANHLNKLAEKEETGMAMRIRVGQSMNMGSDFDVFAHITNNTAEEYVCRLLLCARTVSYNGILGPECGTKYLLNLNLEPFSEKSVPLCILYEKYRDCLTESNLIKVRALLVEPVINSYLLAERDLYLENPEIKIRILGEPKQKRKLVAEVSLQNPLPVALEGCTFTVEGAGLTEEQKTVEIPDPVEAGEEVKVRMDLLPLHMGLHKLVVNFESDKLKAVKGFRNVIIGPA | kcat/KM=440 min-1 mM-1
3 |  |  | 7 | {5(6)‑carboxyfluorescein}-PQPELPYPQ (not fully specified) [peptide 3 (minimal αII epitope)] | 
4 | 28 | 8 |  | {5(6)‑carboxyfluorescein}-LQLQPFPQPELPYPQPELPYPQPELPYPQPQPF (not fully specified) [33-mer peptide 1 (deamidated 33-mer from α2-gliadin)] | 
